The supplement of paper PMC9170038

Test system: MS2 coat protein
Assay: apparent KD of MS2 coat protein; designed switch direction (-1 OFF switch, 1 ON switch): 1; higher = weaker reporter binding
Outline: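 The buffer was Tris-HCl pH 7.5 with KCl, MgCl2, BSA, DTT, tRNA and Tween-20. In it, SNAP-549-labelled MS2 coat protein was titrated in doubling steps from 0.7 or 1.5 nM to 3 µM over chip-bound RNA switches transcribed by stalled E. coli RNA polymerase on Illumina chips. Apparent KD is the per-design median over clusters of curve fits to normalised fluorescence.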

[1] = Eterna round: R95, input ligand: FMN 200 uM
[2] = Eterna round: R95, input ligand: microRNA oligo, concentration not stated
[3] = Eterna round: R95, input ligand: none
[4] = input ligand: microRNA oligo, concentration not stated

| Sequence | apparent KD of MS2 coat protein [1] | apparent KD of MS2 coat protein [2] | apparent KD of MS2 coat protein [3] | apparent KD of MS2 coat protein (input ligand: FMN 200 uM) | apparent KD of MS2 coat protein [4] | apparent KD of MS2 coat protein (input ligand: none) |
| --- | --- | --- | --- | --- | --- | --- |
| AGCUAUCGAAAACGAUAGCAAAAGCAUGUACAUGAGGAUCACCCAUGUCAUGUACAAGCUUUUUGCUCGUUUUAAAA [Zipper 23 - 15] (puzzle: Sensor for hsa-mir-208a) | 20.1 nM | 37.8 nM | 52.5 nM | – | – | – |
| AGCUAUCGCGUACGAUAGCUGAAGCAUGUACAUGAGGAUCACCCAUGUCAUGUACAGGCUUUUUGCUCGUCUUAUUG [JL-shm-2.27 JL mod] (puzzle: Sensor for hsa-mir-208a) | 770 nM | 16.4 nM | 625 nM | – | – | – |
| AGCUAUUAAUCAGGAUAUAGGGACAUGAGGAUCACCCAUGUGUACAUGAGUAAAUGUGAUCACGUCUAGAAGGGAUUACUAACA [SameState NG2 #38] (Eterna round: R96, puzzle: Same State NG 2) | – | – | – | 184 nM | 92.9 nM | 133 nM |
| AGCUAUUAAUCAGGAUAUAGUGACAUGAGGAUCACCCAUGUAUUGAUGAUUAAAUGUGGUCACCACUAGAAGGGAUUACUAACA [SameState NG2 #48] (Eterna round: R96, puzzle: Same State NG 2) | – | – | – | 23.2 nM | 23.8 nM | 26.9 nM |
| AGCUAUUAAUCAGGAUAUAGUGACAUGAGGAUCACCCAUGUAUUGAUGAUUAAAUGUGGUCGCCGCUAGAAGGGAUUACUAACA [SameState NG2 #46] (Eterna round: R96, puzzle: Same State NG 2) | – | – | – | 35.2 nM | 23.2 nM | 30.7 nM |
| AGCUAUUAAUCAGGAUAUGGUCACAUGAGGAUCACCCAUGUAUAGAUGAUUGAAUGUGGUCUAAACUAGAAGGGAUUGCUAACA [SameState NG2 #57] (Eterna round: R96, puzzle: Same State NG 2) | – | – | – | 971 nM | 232 nM | 745 nM |
| AGCUAUUAAUCAGGAUAUGGUGACAUGAGGAUCACCCAUGUAUAGAUGAUUAAAUGUGGUCUAAACUAGAAGGGAUUGCUAACA [SameState NG2 #55] (Eterna round: R96, puzzle: Same State NG 2) | – | – | – | 214 nM | 247 nM | 219 nM |
| AGGAAGGAGACUGAGGAUAUCGUUGAGAGGACAUGAGGAUCACCCAUGUGUAUAGGAUUGGAGAACGAGAAGGCAGAGGAGUGGG [JR_SS2_Sub047] (puzzle: Same State 2) | 58 nM | 76.2 nM | 101 nM | – | – | – |
| AGGCUCAGACGAGGAUAUACGUGGUCACAUGAGGAUCACCCAUGUCUCGAGCUUCGGCUCGAGGCGUAGAAGGUGUCUGAGCCA [SSNG2/6-C1] (Eterna round: R96, puzzle: Same State NG 2) | – | – | – | 195 nM | 406 nM | 609 nM |
| AGGCUCAGACGAGGAUAUAUGCGAUCACAUGAGGAUCACCCAUGUCUCGAGCUUCGGCUCGAGGCAUAGAAGGCGUCUGAGCCA [SSNG2/4-A1] (Eterna round: R96, puzzle: Same State NG 2) | – | – | – | 16.4 nM | 31.2 nM | 38.4 nM |
| AGGCUCAGACGAGGAUAUAUGUCUCGAGCUUCGGCUCGAGACAUGAGGAUCACCCAUGUAAUAACAUAGAAGGUGUCUGAGCCA [SSNG2/1-C1] (Eterna round: R96, puzzle: Same State NG 2) | – | – | – | 49.1 nM | 208 nM | 253 nM |
| AGGCUCAGACGAGGAUAUAUGUGAUCACAUGAGGAUCACCCAUGUCUCGAGCUUCGGCUCGAGACAUAGAAGGUGUCUGAGCCA [SSNG2/3-C1] (Eterna round: R96, puzzle: Same State NG 2) | – | – | – | 76.4 nM | 3.03 nM | 32.3 nM |
| AGGCUCAGACGAGGAUAUGAUCAUGGCGCUUCGGCGCAUACAUGAGGAUCACCCAUGUAGGGUGAUCAGAAGGUGUCUGAGCCA [SSNG2/8-B1] (Eterna round: R96, puzzle: Same State NG 2) | – | – | – | 92.1 nM | 505 nM | 1210 nM |
| AGGCUCAGACUAGGAUAUAUGCGAUCACAUGAGGAUCACCCAUGUCUCGAGCUUCGGCUCGAGGCAUAGAAGGAGUCUGAGCCA [SSNG2/4-D1] (Eterna round: R96, puzzle: Same State NG 2) | – | – | – | 17.1 nM | 30.8 nM | 57 nM |
| AGGCUCAGAGCAGGAUAUAUGUAAUAACAUGAGGAUCACCCAUGUGUCGAGCUUCGGCUCGACACAUAGAAGGGCUCUGAGCCA [SSNG2/2-B1] (Eterna round: R96, puzzle: Same State NG 2) | – | – | – | 16.9 nM | 28.8 nM | 45.9 nM |
| AGGCUCGUGCUAGGAUAUCUAGGAUAUGGACGAGGAUUACCCGAGCAGCAUUAGCGCACCAGAGGAGAGAAGGAGCGACAUGCG [pwkr ssNG2 2F5 2FMN.11] (Eterna round: R96, puzzle: Same State NG 2) | – | – | – | 5.78 nM | 4.91 nM | 16 nM |
| AGGGAGGAAGCUGAGGAUAUCGUAAGGAGGACAUGAGGAUCACCCAUGUGUGUAGAAUUGGAGGACGAGAAGGCAGAGGAGUGGG [JR_SS2_Sub053] (puzzle: Same State 2) | 34 nM | 21.3 nM | 37 nM | – | – | – |
| AGGUAACAUGAGGAUCACCCAUGUAAGGUGAACGUAGGAUAUCGAGGAGGUAGGGUAGGCCGAGAAGGACGAGGAG [JR_SS1_Sub093] (puzzle: Same State 1) | – | 221 nM | – | – | – | – |
| AGGUGGUGUGGAAAGGAUAUACGGUUGAGGACAUGAGGAUCACCCAUGUGGUAGAGGACGUAAGGGUAGAAGGUUCGGGAUUGGU [JR_SS@_Sub022] (puzzle: Same State 2) | 41.2 nM | 36.5 nM | 41.7 nM | – | – | – |
| AGUAGUGUAACAUGAGGAUCACCCAUGUAAGUAGAUGUAACCUAGGAUAUGGAUGAUAUGUUAGUCCAGAAGGAGGAUUGUUUA [JR_SSNG3_Sub038] (Eterna round: R96, puzzle: Same State NG 3) | – | – | – | 20.6 nM | 36.7 nM | 34.8 nM |
| AGUCAAGACAUGAGGAUCACCCAUGUUGGGAACAUGGAGGACGAGGAUAUGUGUCGAUAUGUGACGUAGAAGGCGUCAGACAAA [Eternabot solution 33] (Eterna round: R96, puzzle: Same State NG 3) | – | – | – | 189 nM | 224 nM | 419 nM |
| AGUCCAGCAUAAGCUGGACAAAAGCAUGUACAUGAGGAUCACCCAUGUUCAUGUACAAGCUUUUUGCAAGUCAAAAU [Mat - hsa-mir-208a - Mod of JL - 82] (puzzle: Sensor for hsa-mir-208a) | 374 nM | 18 nM | 734 nM | – | – | – |
| AGUCCAGCCAAAGCUGGACAAAAGCAUGUACAUGAGGAUCACCCAUGUUCAUGUACAAGCUUUUUGCAAGUCAAAAU [Mat - hsa-mir-208a - Mod of JL - 78] (puzzle: Sensor for hsa-mir-208a) | 542 nM | 17.1 nM | 433 nM | – | – | – |
| AGUCCAGCCAGAGCUGGACAAAAGCAUGUACAUGAGGAUCACCCAUGUUCAUGUACAAGCUUUUUGCAAGUCAAAAG [Mat - hsa-mir-208a - Mod of JL - 74] (puzzle: Sensor for hsa-mir-208a) | 503 nM | 25.9 nM | 780 nM | – | – | – |
| AGUCCAGCCUAAGCUGGACAAAAGCAUGUACAUGAGGAUCACCCAUGUUCAUGUACAAGCUUUUUGCAAGUCAAAAU [Mat - hsa-mir-208a - Mod of JL - 79] (Eterna round: R96, puzzle: Sensor for hsa-mir-208a) | – | – | – | 837 nM | 19.1 nM | 725 nM |
| AGUCCAGCCUAAGCUGGACAAAAGCAUGUACAUGAGGAUCACCCAUGUUCAUGUACAAGCUUUUUGCAAGUCAAAAU [Mat - hsa-mir-208a - Mod of JL - 79] (puzzle: Sensor for hsa-mir-208a) | 1050 nM | 19.3 nM | 1050 nM | – | – | – |
| AGUCCAGCCUGAGCUGGACAAAAGCAUGUACAUGAGGAUCACCCAUGUCAUGUACAAGCUUUUUGCUCAUCUUAAAA [Mat - hsa-mir-208a - Mod of JL - D11] (Eterna round: R96, puzzle: Sensor for hsa-mir-208a) | – | – | – | 750 nM | 11.8 nM | 886 nM |
| AGUCCAGCCUGAGCUGGACAAAAGCAUGUACAUGAGGAUCACCCAUGUCAUGUACAAGCUUUUUGCUCAUCUUAAAA [Mat - hsa-mir-208a - Mod of JL - D11] (puzzle: Sensor for hsa-mir-208a) | 624 nM | 16.4 nM | 922 nM | – | – | – |
| AGUCCAGCCUGAGCUGGACAAAAGCAUGUACAUGAGGAUCACCCAUGUCAUGUACAAGCUUUUUGCUCGUCUAAAAU [Mat - hsa-mir-208a - Mod of JL - D6] (puzzle: Sensor for hsa-mir-208a) | 430 nM | 16.3 nM | 675 nM | – | – | – |
| AGUCCAGCCUGAGCUGGACAAAAGCAUGUACAUGAGGAUCACCCAUGUUCAUGUACAAGCUUUUUGCUCGUCAAAAG [Mat - hsa-mir-208a - Mod of JL - 67] (puzzle: Sensor for hsa-mir-208a) | 180 nM | 18.3 nM | 372 nM | – | – | – |
